Experimental data as given in patent US20090062150A1 (published 2009).

Target: T1, 7-mer (AGAIAGG) derived from Toxoplasma gondii micronemal proteins (MIC2) (Toxoplasma gondii)
T1 construct: also called MIC2 peptide; MC2
Assay: crystal soak, X-ray structure

B1: N-terminally truncated GlpG transmembrane core domain (residues 87-276), E. coli rhomboid protease (enzyme)
chain: AALRERAGPVTWVMMIACVVVFIAMQILGDQEVMLWLAWPFDPTLKFEFWRYFTHALMHFSLMHILFNLLWWWYLGGAVEKRLGSGKLIVITLISALLSGYVQQKFSGPWFGGLSGVVYALMGYVWLRGERDPQSGIYLQRGLIIFALIWIVAGWFDLFGMSMANGAHIAGLAVGLAMAFVDSLNARKRK
notes: range 87-276; also called GlpG core; truncated GlpG core domain
binding result: binds
